# Assay results published in paper PMC7504393 (International Journal of Molecular Sciences, 2020).
# Columns and labels:
# [1] = biological target: T1, recombinant human YKL-40 protein (hYKL-40) (Homo sapiens, UniProt P36222); test: ELISA; hYKL-40 coated at 2 ug/mL (30 uL per well, overnight, 4 °C); serially diluted Fabs, 1 h at 37 °C; detection with HRP-conjugated StrepMAB-Classic; apparent affinity (EC50); settings: both partners purified
# T1 construct: human YKL-40 (chitinase-3-like 1, CHI3L1), recombinant protein from Sino Biological; also called chitinase-3-like 1; CHI3L1; source: bought: Sino Biological
# [2] = biological target: T2, native YKL-40 from murine cells (Mus musculus, UniProt Q61362); test: western blot; H1 (IgG) as the probing antibody on lysates of human and murine cells (Figure S5); settings: one partner purified
# T2 construct: mouse YKL-40 (chitinase-3-like protein 1), endogenous in murine cells; source: endogenous, murine cell lysates (including mouse lung cells)
# [3] = biological target: T1, recombinant human YKL-40 protein …; test: ELISA; soluble ELISA of serially diluted IgGs on immobilized hYKL-40 surfaces; apparent affinity (EC50); settings: both partners purified
# [4] = biological target: T1, recombinant human YKL-40 protein …; test: BLI; Octet QK384; hYKL-40 amine-coupled to AR2G tips (15 ug/mL, 10 mM sodium acetate pH 5.0); H1 (IgG) 50 nM~0 nM in 2-fold dilutions in PBS with 0.09% Tween 20; 1:1 binding model; apparent KD; settings: both partners purified
# recombinant mouse YKL-40 = biological target: T3, recombinant mouse YKL-40 (Mus musculus, UniProt Q61362); test: western blot; H1 (IgG) as the probing antibody on recombinant human and mouse YKL-40 (Figure S5); settings: both partners purified
# T3 construct: mouse YKL-40 (chitinase-3-like protein 1), recombinant
# T3 sequence (Q61362 30-389): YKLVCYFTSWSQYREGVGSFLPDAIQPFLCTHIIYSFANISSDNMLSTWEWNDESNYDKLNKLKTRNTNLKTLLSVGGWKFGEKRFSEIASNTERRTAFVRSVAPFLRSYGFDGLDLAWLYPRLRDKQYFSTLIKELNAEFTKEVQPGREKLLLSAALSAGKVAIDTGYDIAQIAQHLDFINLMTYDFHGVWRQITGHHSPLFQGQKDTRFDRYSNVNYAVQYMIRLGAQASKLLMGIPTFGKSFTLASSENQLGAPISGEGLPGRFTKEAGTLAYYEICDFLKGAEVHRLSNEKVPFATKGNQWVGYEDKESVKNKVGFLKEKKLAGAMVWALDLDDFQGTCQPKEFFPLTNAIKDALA
# T1 sequence (P36222 22-383): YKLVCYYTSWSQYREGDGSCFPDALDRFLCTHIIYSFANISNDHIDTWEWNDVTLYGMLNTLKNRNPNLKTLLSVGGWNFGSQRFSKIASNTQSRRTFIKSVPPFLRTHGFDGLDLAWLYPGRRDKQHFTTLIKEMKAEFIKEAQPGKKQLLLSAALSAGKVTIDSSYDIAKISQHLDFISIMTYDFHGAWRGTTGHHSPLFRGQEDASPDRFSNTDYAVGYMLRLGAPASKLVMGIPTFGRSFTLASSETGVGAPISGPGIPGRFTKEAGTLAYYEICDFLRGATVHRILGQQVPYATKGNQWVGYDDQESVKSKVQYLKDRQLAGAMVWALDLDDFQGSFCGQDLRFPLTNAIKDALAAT
# T2 sequence (Q61362 30-389): as the sequence (Q61362 30-389) above
Binder,EC50 [1] [nM],binding result [2],EC50 [3] [nM],Kd [4] [nM],binding result (recombinant mouse YKL-40)
"H1 (Fab), human anti-hYKL-40 Fab (Fab, V domains shown, heavy chain (VH-CH1) of the H1 Fab, from the synthetic library KFab-I (human VH3 framework, randomised CDRs); light chain (VL-CL) of the H1 Fab, from the synthetic library KFab-I (human Vk1 framework, randomised CDRs); it is written on the heavy chain as a surmise; Expression vector pKFAB (in-house); source: E. coli Top10F', periplasmic extract, purified (Strep-Tactin XT)) VH: EVQLVESGGGLVQPGGSLRLSCAASGFTFSNYAMSWVRQAPGKGLEWVSGISGSGGTTYYADSVKGRFTISRDNSKNTLYLQMNSLRAEDTAVYYCAGVGTFDVWGQGTLVTVSS VL: DIQMTQSPSSLSASVGDRVTITCRASQTISSWLNWYQQKPGKAPKLLIYAASRLQSGVPSRFSGSGSGTDFTLTISSLQPEDFATYYCQQSYSTPLTFGQGTKVEIK",2.3,–,–,–,–
"H1 (IgG), human anti-hYKL-40 IgG (antibody, V domains shown, VH of H1, as in the heavy chain of m2 (PDB 7CJ2); human VH3 framework; human IgG1 heavy-chain constant region, from the heavy-chain vector (pOptiVEC) used for Herceptin expression as IgG1 backbone; VL-CL (Vk1, Ck1) of H1, as the light chain of m2 (PDB 7CJ2); IgG1, kappa; VL and CL were amplified and joined by overlap extension PCR; VH was cloned into the Herceptin IgG1 backbone; also called H1 …) VH: EVQLVESGGGLVQPGGSLRLSCAASGFTFSNYAMSWVRQAPGKGLEWVSGISGSGGTTYYADSVKGRFTISRDNSKNTLYLQMNSLRAEDTAVYYCAGVGTFDVWGQGTLVTVSS VL: DIQMTQSPSSLSASVGDRVTITCRASQTISSWLNWYQQKPGKAPKLLIYAASRLQSGVPSRFSGSGSGTDFTLTISSLQPEDFATYYCQQSYSTPLTFGQGTKVEIK",–,binds,0.5,0.05,binds
